Data: patent EP4786494A1 (Nanjing Leads Biolabs Co., Ltd., dated 2026)

Tests used:
[1] = molecular target: T1, cynomolgus FGFR2-his protein (cynoFGFR2-his) (cynomolgus); test: BLI (ForteBio Octet RED96e), antibody on AHC sensor, cynomolgus FGFR2-his in solution, 1:1 model
T1 construct: Extracellular region of cynomolgus FGFR2b (XP_028682763.1) with a 6xHis tag; also called cynomolgus FGFR2 extracellular protein
T1 chain: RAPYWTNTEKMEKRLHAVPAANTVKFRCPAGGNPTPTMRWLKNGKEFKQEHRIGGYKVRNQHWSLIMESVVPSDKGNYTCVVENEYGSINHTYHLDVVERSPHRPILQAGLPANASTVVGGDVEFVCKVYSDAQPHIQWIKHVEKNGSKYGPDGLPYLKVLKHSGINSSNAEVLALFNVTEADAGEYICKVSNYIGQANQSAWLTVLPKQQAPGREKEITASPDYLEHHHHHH

[2] = molecular target: T2, human FGFR2-his protein (huFGFR2-his) (human); test: BLI (ForteBio Octet RED96e), antibody on AHC sensor, FGFR2-his in solution, 1:1 model
T2 construct: Extracellular region of human FGFR2 (NP_001138385.1) with a 6xHis tag; also called human FGFR2 extracellular protein
T2 chain: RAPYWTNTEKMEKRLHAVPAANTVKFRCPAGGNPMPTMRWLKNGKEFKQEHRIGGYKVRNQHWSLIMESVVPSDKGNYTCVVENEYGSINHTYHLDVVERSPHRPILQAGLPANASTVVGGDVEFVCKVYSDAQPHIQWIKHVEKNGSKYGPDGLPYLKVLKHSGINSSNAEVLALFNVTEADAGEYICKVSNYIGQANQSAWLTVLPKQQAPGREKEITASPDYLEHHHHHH

Kd [1]: 1.62 nM
koff [1]: 0.000866 s⁻¹
kon [1]: 536000 M⁻¹ s⁻¹
Kd [2]: 2.62 nM
koff [2]: 0.000431 s⁻¹
kon [2]: 164000 M⁻¹ s⁻¹
B1: humanized monoclonal antibody huG11B8-5 (antibody, human IgG1, kappa, V domains shown)
VH: EVQLVQSGAEVKKPGATVKISCKASGYTFTDYNMDWVQQAPGKGLEWMGDINPKNGETFYAEKFQGRVTLTVDRSTNTAYMELSSLRSEDTAVYFCAKRDLNWYFDYWGQGTTVTVSS
VL: DIQMTQSPSSLSASVGDRVTITCQASDHINNWLAWYQQKPGKAPKLLISGATSLETGVPSRFSGSGSGKDYTFTISSLQPEDIATYYCQQYWSTPWTFGGGTKVEIKR
notes: huG11B8H-3 + huG11B8L-1; human IgG1 / kappa
